Experiment [1] addresses T1, Recombinant human VEGFR-3-Fc chimera (human, UniProt P35916 25-775).
T1 construct: human VEGFR-3 part of the bought Fc chimera; source: bought: R&D Systems
T1 sequence (looked up): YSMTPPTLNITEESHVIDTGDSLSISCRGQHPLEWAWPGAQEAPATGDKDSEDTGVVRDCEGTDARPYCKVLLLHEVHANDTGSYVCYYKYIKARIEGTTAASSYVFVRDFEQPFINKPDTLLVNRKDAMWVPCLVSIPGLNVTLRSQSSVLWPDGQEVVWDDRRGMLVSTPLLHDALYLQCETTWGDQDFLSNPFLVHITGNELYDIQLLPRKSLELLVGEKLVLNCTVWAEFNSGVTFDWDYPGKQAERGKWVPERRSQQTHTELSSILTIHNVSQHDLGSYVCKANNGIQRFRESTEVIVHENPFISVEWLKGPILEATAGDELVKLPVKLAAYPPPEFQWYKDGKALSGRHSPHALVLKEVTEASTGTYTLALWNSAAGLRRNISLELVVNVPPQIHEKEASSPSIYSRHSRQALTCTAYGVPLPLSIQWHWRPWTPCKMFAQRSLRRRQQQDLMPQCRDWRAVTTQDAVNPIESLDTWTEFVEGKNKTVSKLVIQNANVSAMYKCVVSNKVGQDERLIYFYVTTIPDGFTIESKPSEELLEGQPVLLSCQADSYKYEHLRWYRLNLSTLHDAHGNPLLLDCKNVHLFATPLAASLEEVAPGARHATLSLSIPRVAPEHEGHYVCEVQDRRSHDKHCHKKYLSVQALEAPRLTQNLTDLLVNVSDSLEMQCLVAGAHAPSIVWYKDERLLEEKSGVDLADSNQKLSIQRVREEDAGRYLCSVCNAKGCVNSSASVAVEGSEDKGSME

Experiment [2] addresses T2, Recombinant human VEGFR-2-Fc chimera (human, UniProt P35968 20-764).
T2 construct: human VEGFR-2 part of the bought Fc chimera; source: bought: R&D Systems
The experiment can be described thus: ELISA; plates coated with human VEGFR-2- or VEGFR-3-Fc chimera at 0.5 μg/ml in 100 mM carbonate buffer pH 9.5; blocked with 1% BSA in PBS, 0.1% Tween 20; 20 ng purified FLAG-tagged ligand in 100 μl PBS, 1 h, room temperature; bound ligand detected with M2-HRP; result as percent of VEGF-DΔNΔC. Conditions: both partners purified. (In general: ELISA stands for enzyme-linked immunosorbent assay.)

For experiment [3], the target named is T1, Recombinant human VEGFR-3-Fc chimera. The description is as above. Conditions: both partners purified.

T2 sequence (P35968 20-764, change not shown): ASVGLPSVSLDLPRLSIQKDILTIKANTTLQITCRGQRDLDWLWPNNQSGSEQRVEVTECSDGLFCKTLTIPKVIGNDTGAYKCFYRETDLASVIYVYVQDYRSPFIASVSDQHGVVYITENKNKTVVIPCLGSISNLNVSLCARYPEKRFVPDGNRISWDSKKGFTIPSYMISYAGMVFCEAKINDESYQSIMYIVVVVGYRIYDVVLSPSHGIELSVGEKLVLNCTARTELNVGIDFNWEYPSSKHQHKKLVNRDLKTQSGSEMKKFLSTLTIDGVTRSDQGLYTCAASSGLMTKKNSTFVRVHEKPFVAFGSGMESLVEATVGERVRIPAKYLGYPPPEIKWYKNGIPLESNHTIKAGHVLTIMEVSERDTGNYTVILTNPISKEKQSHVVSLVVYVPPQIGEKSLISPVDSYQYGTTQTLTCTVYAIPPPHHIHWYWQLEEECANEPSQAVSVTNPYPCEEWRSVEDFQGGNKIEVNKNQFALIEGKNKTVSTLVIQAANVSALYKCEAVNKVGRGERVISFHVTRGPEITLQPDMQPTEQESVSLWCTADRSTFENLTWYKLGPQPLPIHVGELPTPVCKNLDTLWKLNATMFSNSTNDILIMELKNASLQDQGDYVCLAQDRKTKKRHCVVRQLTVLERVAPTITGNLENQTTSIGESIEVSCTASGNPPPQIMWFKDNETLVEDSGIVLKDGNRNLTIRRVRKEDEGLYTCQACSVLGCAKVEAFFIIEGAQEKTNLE

“VEGF-CΔNΔC (from UniProt P49767 102-229) (ligand)”: the titration of ligand in the bioassay of VEGFR-3 binding and cross-linking; potency relative to VEGF-DΔNΔC (Fig. 6C) in experiment [1] was 10 fold.

B1: VEGF-DΔNΔC (ligand, human, UniProt O43915 93-201, looked up)
chain: FYDIETLKVIDEEWQRTQCSPRETCVEVASELGKSTNTFFKPPCVNVFRCGGCCNEESLICMNTSTSYISKQLFEISVPLTSVPELVPVKVANHTGCKCLPTAPRHPYS
notes: human VEGF-D, residues 93-201 (recombinant form of mature VEGF-D); also called mature human VEGF-D; source: 293-F cells, transiently transfected; purified from conditioned medium on M2 (anti-FLAG) gel; not shown: FLAG, N-terminal, kept
With B1, the binding result in experiment [2] and in experiment [3] was “binds” each time.

B2: VEGF-DΔNΔC E97A (ligand, human, UniProt O43915 93-201, looked up)
chain: FYDIATLKVIDEEWQRTQCSPRETCVEVASELGKSTNTFFKPPCVNVFRCGGCCNEESLICMNTSTSYISKQLFEISVPLTSVPELVPVKVANHTGCKCLPTAPRHPYS
notes: human VEGF-D, residues 93-201, Glu97 to alanine; source: 293-F cells, transiently transfected; purified from conditioned medium on M2 (anti-FLAG) gel; not shown: FLAG, N-terminal, kept
With B2, the binding result in experiment [2] is reported as “binds”.

B3: VEGF-DΔNΔC I102A (ligand, human, UniProt O43915 93-201, looked up)
chain: FYDIETLKVADEEWQRTQCSPRETCVEVASELGKSTNTFFKPPCVNVFRCGGCCNEESLICMNTSTSYISKQLFEISVPLTSVPELVPVKVANHTGCKCLPTAPRHPYS
notes: human VEGF-D, residues 93-201, I102A; source: 293-F cells, transiently transfected; purified from conditioned medium on M2 (anti-FLAG) gel; not shown: FLAG, N-terminal, kept
On to B3, for which the binding result in experiment [2] and in experiment [3] was “binds” throughout.

B4: VEGF-DΔNΔC W106A (ligand, human, UniProt O43915 93-201, looked up)
chain: FYDIETLKVIDEEAQRTQCSPRETCVEVASELGKSTNTFFKPPCVNVFRCGGCCNEESLICMNTSTSYISKQLFEISVPLTSVPELVPVKVANHTGCKCLPTAPRHPYS
notes: human VEGF-D, residues 93-201, W106A; source: 293-F cells, transiently transfected; purified from conditioned medium on M2 (anti-FLAG) gel; not shown: FLAG, N-terminal, kept
For the molecule B4, the binding result in experiment [2] and in experiment [3] was “binds” in each case.

B5: VEGF-DΔNΔC F93A (ligand, human, UniProt O43915 93-201, looked up)
chain: AYDIETLKVIDEEWQRTQCSPRETCVEVASELGKSTNTFFKPPCVNVFRCGGCCNEESLICMNTSTSYISKQLFEISVPLTSVPELVPVKVANHTGCKCLPTAPRHPYS
notes: human VEGF-D, residues 93-201, Phe93 to alanine; source: 293-F cells, transiently transfected; purified from conditioned medium on M2 (anti-FLAG) gel; not shown: FLAG, N-terminal, kept
On to B5, for which, in experiment [2], the binding result is on record as “binds”.

B6: VEGF-DΔNΔC I96A (ligand, human, UniProt O43915 93-201, looked up)
chain: FYDAETLKVIDEEWQRTQCSPRETCVEVASELGKSTNTFFKPPCVNVFRCGGCCNEESLICMNTSTSYISKQLFEISVPLTSVPELVPVKVANHTGCKCLPTAPRHPYS
notes: human VEGF-D, residues 93-201, residue 96 (Ile) to alanine; source: 293-F cells, transiently transfected; purified from conditioned medium on M2 (anti-FLAG) gel; not shown: FLAG, N-terminal, kept
As for B6, the binding result in experiment [2] is on record as “binds”.

B7: VEGF-DΔNΔC Y94A (ligand, human, UniProt O43915 93-201, looked up)
chain: FADIETLKVIDEEWQRTQCSPRETCVEVASELGKSTNTFFKPPCVNVFRCGGCCNEESLICMNTSTSYISKQLFEISVPLTSVPELVPVKVANHTGCKCLPTAPRHPYS
notes: human VEGF-D, residues 93-201, Y94A; source: 293-F cells, transiently transfected; purified from conditioned medium on M2 (anti-FLAG) gel; not shown: FLAG, N-terminal, kept
Regarding B7, in experiment [2], the binding result is given as “binds”.

B8: VEGF-DΔNΔC D103A (ligand, human, UniProt O43915 93-201, looked up)
chain: FYDIETLKVIAEEWQRTQCSPRETCVEVASELGKSTNTFFKPPCVNVFRCGGCCNEESLICMNTSTSYISKQLFEISVPLTSVPELVPVKVANHTGCKCLPTAPRHPYS
notes: human VEGF-D, residues 93-201, D103A; source: 293-F cells, transiently transfected; purified from conditioned medium on M2 (anti-FLAG) gel; not shown: FLAG, N-terminal, kept
As to B8, the binding result in experiment [2] and in experiment [3] was “binds” throughout.

B9: VEGF-DΔNΔC L99A (ligand, human, UniProt O43915 93-201, looked up)
chain: FYDIETAKVIDEEWQRTQCSPRETCVEVASELGKSTNTFFKPPCVNVFRCGGCCNEESLICMNTSTSYISKQLFEISVPLTSVPELVPVKVANHTGCKCLPTAPRHPYS
notes: human VEGF-D, residues 93-201, L99A; source: 293-F cells, transiently transfected; purified from conditioned medium on M2 (anti-FLAG) gel; not shown: FLAG, N-terminal, kept
With B9, the binding result in experiment [2] is “binds”.

B10: VEGF-DΔNΔC E105A (ligand, human, UniProt O43915 93-201, looked up)
chain: FYDIETLKVIDEAWQRTQCSPRETCVEVASELGKSTNTFFKPPCVNVFRCGGCCNEESLICMNTSTSYISKQLFEISVPLTSVPELVPVKVANHTGCKCLPTAPRHPYS
notes: human VEGF-D, residues 93-201, E105A; source: 293-F cells, transiently transfected; purified from conditioned medium on M2 (anti-FLAG) gel; not shown: FLAG, N-terminal, kept
With B10, the binding result in experiment [2] and in experiment [3] was “binds” each time.

B11: VEGF-DΔNΔC T98A (ligand, human, UniProt O43915 93-201, looked up)
chain: FYDIEALKVIDEEWQRTQCSPRETCVEVASELGKSTNTFFKPPCVNVFRCGGCCNEESLICMNTSTSYISKQLFEISVPLTSVPELVPVKVANHTGCKCLPTAPRHPYS
notes: human VEGF-D, residues 93-201, Thr98 to alanine; source: 293-F cells, transiently transfected; purified from conditioned medium on M2 (anti-FLAG) gel; not shown: FLAG, N-terminal, kept
Regarding B11, the binding result in experiment [2] is reported as “binds”.

B12: VEGF-DΔNΔC D95A (ligand, human, UniProt O43915 93-201, looked up)
chain: FYAIETLKVIDEEWQRTQCSPRETCVEVASELGKSTNTFFKPPCVNVFRCGGCCNEESLICMNTSTSYISKQLFEISVPLTSVPELVPVKVANHTGCKCLPTAPRHPYS
notes: human VEGF-D, residues 93-201, Asp95 to alanine; source: 293-F cells, transiently transfected; purified from conditioned medium on M2 (anti-FLAG) gel; not shown: FLAG, N-terminal, kept
For the molecule B12, the binding result in experiment [2] was “binds”.

Values taken from paper PMC5207153, “Differential Receptor Binding and Regulatory Mechanisms for the Lymphangiogenic Growth Factors Vascular Endothelial Growth Factor (VEGF)-C and -D*^([image sbox.jpg])” (The Journal of Biological Chemistry, 2016).
